{"source": "paper PMC8266614", "about": "“Stabilization of Hfq-mediated translational repression by the co-repressor Crc in Pseudomonas aeruginosa” (Nucleic Acids Research, 2021)", "molecular_target": "T1, Hfq_(S65C)-Flag (P. aeruginosa, UniProt Q9HUM0 1-82, S65C)", "T1 construct": "also called Hfq S65C-Flag protomer of Hfq*; source: E. coli JW4130F'Δhfq(pKEHfqPae); not shown: FLAG, C-terminal, kept", "assay": "co-IP", "conditions": "both partners purified"}
{"binder": "P. aeruginosa Hfq, wild type (natural protein, RNA chaperone Hfq of Pseudomonas aeruginosa, wild type, from plasmid pKEHfqPae; In the row with m4 the wild-type protomer inside the mixed hexamer is meant; also called Hfq wt; Pae Hfq; source: for Hfq* co-produced with Hfq_(S65C)-Flag in the same strain) MSKGHSLQDPYLNTLRKERVPVSIYLVNGIKLQGQIESFDQFVILLKNTVSQMVYKHAISTVVPSRPVRLPSGDQPAEPGNA", "values": [{"measurement": "stoichiometry N", "value": "1 Hfq wt per Hfq_(S65C)-Flag"}]}
